Tests used:
[1] = target: HTLV-1 120 PR (HTLV-1 protease shortened by 5 C-terminal residues) (Human T-lymphotropic virus type 1 (HTLV-1)); test: activity-based dimerization assay
[2] = target: His-HTLV-1 125 PR (N-terminally His-tagged full-length stabilized HTLV-1 protease) (Human T-lymphotropic virus type 1 (HTLV-1)); test: pull-down
[3] = target: HTLV-1 125 PR (stabilized full-length HTLV-1 protease) (Human T-lymphotropic virus type 1 (HTLV-1)); test: SEC
[4] = target: HTLV-1 125 PR (stabilized full-length HTLV-1 protease) (Human T-lymphotropic virus type 1 (HTLV-1)); test: activity-based dimerization assay

HTLV-1 120 PR (HTLV-1 protease shortened by 5 C-terminal residues) (domain or fragment)
Kd [1]: > 3000 nM
densitometric ratio of the untagged to the His-tagged band (120/H125) [2]: 37.2

HTLV-1 125 PR (stabilized full-length HTLV-1 protease) (enzyme)
stoichiometry N [3]: 2
Kd [4]: 491 nM
densitometric ratio of the untagged to the His-tagged band (125/H125) [2]: 84.9

HTLV-1 115 PR (HTLV-1 protease shortened by 10 C-terminal residues) (domain or fragment)
densitometric ratio of the untagged to the His-tagged band (115/H125) [2]: 37.3

Source: PMC2778851
